In publication doi:10.1101/2022.09.26.507980 (bioRxiv, 2022):

Target: T1, NiV-F wild type expressed on 293T cells (Nipah virus, UniProt Q9IH63)
T1 construct: source: HEK293T, transiently transfected, on cells
Experiment: flow cytometry on cells
Conditions: one partner purified

B1: mAb92 (antibody, V domains shown)
VH: QSLEESGGRLVTPGTPLTLTCTASGFSLSSYYMMWVRQAPGKGLEWIGIINTGGNAYYASWTKGRFTISKTSTTVDLKITSPTTEDTATYFCARAVPSGAGYSAGGLWGPGTLVTVSS
VL: DQVLTQTPASVEAAVGGTVTIKCQASQSVGFYLSWYQQKPGQPPKLLIYRASTLESGVPSRFKGSGSGTEFTLTISDLECADAATYYCQTNDYLASSAFGGGTEVVVR
notes: also called monoclonal antibody 92
Q: Does B1 bind?
A: binds
